The data set concerns the molecule itself. In words: HDX-MS.

Where a chain is given by its changes, count along the chain named. Names and notes keep the numbering of the source.

B1: Salmonella typhimurium AhpC T77I mutant (enzyme)
chain: SLINTKIKPFKNQAFKNGEFIEVTEKDTEGRWSVFFFYPADFTFVCPTELGDVADHYEELQKLGVDVYSVSTDTHFIHKAWHSSSETIAKIKYAMIGDPTGALTRNFDNMREDEGLADRATFVVDPQGIIQAIEVTAEGIGRDASDLLRKIKAAQYVAAHPGEVCPAKWKEGEATLAPSLDLVGKI
modifications: oxidized form: intersubunit disulfide (Cys-46 to Cys-165); reduced form (TCEP): free thiols
B1: the binding result is on record as “binds”.

B2: Salmonella typhimurium AhpC T77V mutant (enzyme)
chain: B1 chain with I77V
modifications: oxidized form: intersubunit disulfide (Cys-46 to Cys-165); reduced form (TCEP): free thiols
For B2, the binding result is “binds”.

The record behind these values is article PMC3079231 (International journal of mass spectrometry, 2011).
